Measurements published in patent publication US10828354B2, “Laser-assisted intradermal administration of active substances” (PANTEC BIOSOLUTIONS AG, priority 2015, dated 2020).

How the values were obtained:
B16-OVA melanoma = B16-OVA melanoma tumor model; assay type: in vivo, mouse; conditions: for tumor growth, therapeutic setting: B6 mice, immunized 3 days after s.c. inoculation, monitored 16 days after inoculation, vs OVA and PBS groups
Procedure: B Cohort of mice treated as specified in A with 20 μl of PBS containing OVA (low dose: 1.5 μg or high dose: 3.1 μg), or XCL1-OVA vaccibodies (low dose 2.5 μg or high dose 5.0 μg) were analyzed for tumor volume. Control mice were treated with 20 μl of PBS. Tumor volume is shown for each individual mouse and the mean (horizontal bar) is indicated for each condition.***, p<0.001; **, p<0.01; *, p<0.05 and NS: non significant.
C Time line of the prophylactic setting involving laser-assisted, dermal delivery of 20 μl of PBS containing OVA (1.5 μg) or XCL1-OVA vaccibodies (2.5 μg), subcutaneaous inoculation of the B16-OVA melanoma, and tumor volume measurement.
The B16-OVA melanoma is not rejected by immune-competent syngeneic B6 mice, unless mice have been subjected to prophylactic or therapeutic immunization. To evaluate the capacity of laser-assisted, intradermal delivery of XCL1-OVA vaccibodies to inhibit the growth of B16-OVA tumors, B6 mice were subcutaneously inoculated in the flank with B16-OVA cells (FIG. 4A). Three days later, the ear of the mice was subjected to laser-assisted, dermal delivery of XCL1-OVA vaccibodies and tumor growth was monitored 16 days after inoculation. For the sake of comparison, mice received equimolar amounts of free OVA or PBS. […] To investigate the prophylactic effects on tumor growth of laser-assisted intradermal XCL1-OVA immunization, B6 mice were immunized with XCL1-OVA vaccibodies and subcutaneously inoculated with B16-OVA tumor cells 30 days later (FIG. 4C).
(§1) Mice were injected subcutaneously (s.c.) into the flank with 10^5 B16-OVA or B16 melanoma cells (Brown et al, 2001). Tumor size was assessed 14 to 16 days later using a caliper. The presence of T cells infiltrating the tumor was assessed after enzymatic treatment of tumor mass with collagenase 2 (Worthington) and Percoll gradient (Amersham-Pharmacia).

[1] = tested on: tumor infiltrating CD8+ and CD4+ T cells; assay: Intracellular IFNgamma and tetramer staining of tumor-infiltrating T cells; assay type: in vivo, mouse; conditions: day 11 after immunization, PMA and ionomycin restimulation
Procedure: D B6 mice were subcutaneously inoculated with B16-OVA or B16 and immunized 3 days later with 20 μl of PBS containing OVA (1.5 μg) or XCL1-OVA (2.5 μg) vaccibodies using laser-assisted, dermal delivery. On day 11 after immunization, the tumor mass of each mouse was excised and the percentage of […] cells determined among tumor infiltrating CD8^+ and CD4^+ T cells. Data are shown for each individual mouse and the mean (horizontal bar) is indicated for each condition. **, p<0.01; *, p<0.05 and NS for non significant.
A, B, C Mice were immunized as in FIG. 4C. […]
To assess whether the reduction in melanoma tumor growth observed upon treatment with XCL1-OVA vaccibodies was associated with the induction of endogeneous, antigen-specific CD8^+ T cells, wild-type and Xcr1^−/− mice were immunized via laser-assisted intradermal delivery of XCL1-OVA vaccibodies. Six days after immunization, the magnitude of OVA-specific T cell cytotoxicity was measured using an in vivo cytotoxic assay (FIG. 5 C). […]
as §1, with “(Amersham-Pharmacia). […]” for “(Amersham-Pharmacia).”

[2] = tested on: SIINFEKL peptide-pulsed splenocytes; assay: In vivo cytotoxicity assay; set-up: species or system mouse
Procedure: C B6 (WT) and Xcr1^−/− mice were subjected to laser-assisted, dermal delivery of 20 μl of PBS containing OVA (1.5 μg) or XCL1-OVA (2.5 μg) vaccibodies or of 20 μl of PBS (control), or. On day 6, mice were injected with CFSE-labeled target cells to quantitate the induced OVA-specific cytotoxicity in vivo (see Materials and Methods). The percent specific lysis is shown for each individual mouse and the mean (horizontal bar) is indicated for each condition. *, p<0.05.
To assess whether the reduction in melanoma tumor growth observed upon treatment with XCL1-OVA vaccibodies was associated with the induction of endogeneous, antigen-specific CD8^+ T cells, wild-type and Xcr1^−/− mice were immunized via laser-assisted intradermal delivery of XCL1-OVA vaccibodies. Six days after immunization, the magnitude of OVA-specific T cell cytotoxicity was measured using an in vivo cytotoxic assay (FIG. 5 C). […] Therefore, laser-assisted, intradermal delivery of XCL1-OVA vaccibodies induced anti-tumoral responses that can be correlated with the presence of OVA-specific IFNgamma^+ T cells in the regressing tumor mass.
Splenocytes from B6 mice were pulsed with the SIINFEKL peptide or left untreated and labeled with low (0.25 mM) or high (2.5 mM) dose of CTV, respectively. […] 36 h later, single-cell suspension were prepared from spleen and the ratio of CTV^high to CTV^low cells was determined by FACS.

[3] = tested on: OT-I CD8+ and OT-II CD4+ T cells; assay: Proliferation of adoptively transferred CTV-labeled OT-I and OT-II T cells after laser-assisted dermal antigen delivery; assay type: in vivo, mouse
Procedure: B Single-cell suspension were prepared from ear-draining, auricular LNs from B6 mice that received OT-I and OT-II T cells and were immunized by applying on laser-microporated ear 20 μl of PBS containing OVA (3.1 μg), XCL1-OVA vaccibodies (5 μg), XCL1 (1.8 μg) plus OVA (3.1 μg), or PBS alone as a control. CTV dilution of OT-I and OT-II T cells was measured 72 h after antigen delivery. Numbers in histograms indicate the percentage of divided T cells (n=3).
To test whether targeting XCR1^+ dermal DCs with antigen-loaded XCL1-based vaccibodies induced the activation of antigen-specific T cells in vivo, the model antigen OVA was inserted into XCL1-based vaccibodies. Mice were adoptively transferred with CellTraceViolet (CTV)-labeled, OT-I CD8^+ T cells, which express a T cell receptor (TCR) specific for SIINFEKL, an ovalbumin (OVA) peptide presented by H-2K^b, and OT-II CD4^+ T cells, which express a TCR specific for an OVA peptide presented by H2-A^b. One day later, the ear of the mice were subjected to laser-assisted microporation and topical application of XCL1-OVA vaccibodies. To compare the potency of the XCL1-OVA formulation with that of free OVA, mice were also treated with concentrations of OVA equimolar to that present in XCL1-OVA vaccibodies. Three days after immunisation, single-cell suspensions were prepared from ear-draining auricular lymph nodes (LNs) and the extent of OT-I and OT-II cell proliferation was determined by CTV dilution (FIG. 3A).
A P.L.E.A.S.E. portable laser developed by Pantec Biosolutions AG (Bach et al, 2012) was used with the following setting: fluence: 11.9 J/cm^2, pulse duration: 75 μs; RepRate: 200 Hz; pulses per pore: 2, pore array size: 14 mm^2 and pore density 8%. P.L.E.A.S.E.-assisted skin microporation was performed on the ear of anesthetized mice. 20 μl of sterile PBS, 20 μl of sterile PBS containing 1.5 μg (low) or 3.1 μg (high) OVA, or 20 μl of sterile PBS containing 2.5 μg (low) or 5 μg (high) XCL1-OVA were then evenly applied on the microporated ear surface. The PBS solution percolated inside the micropores in less than 10 minutes.
OT-I and OT-II T cells were isolated from pooled LNs and spleen of OT-I or OT-II mice kept on a Rag-2^−/−-B6 [CD45.1] background using CD8^+ and CD4^+ T cell negative isolation kits (Dynal, Invitrogen), respectively. Purity was determined by staining with CD4, CD8, CD5 and TCR Vα2. For CTV labeling, purified OT-I and OT-II T cells were resuspended in PBS containing 2.5 mM cell trace violet (CTV) (Molecular Probes) for 3 min at room temperature. 10^6 CTV-labeled OT-I and OT-II T cells were adoptively transferred into the specified mice. At the indicated times, single-cell suspensions were prepared from the auricular LNs draining the immunized ears and OT-I and OT-II T cells were analyzed by FACS.

B16 melanoma = B16 melanoma tumor model; assay type: in vivo, mouse; conditions: B6 mice immunized 3 days after inoculation, day 11 after immunization
Procedure: A B6 mice were subcutaneously inoculated with B16-OVA or B16 melanoma, and immunized 3 days later with XCL1-OVA vaccibodies using laser-assisted, dermal delivery. On day 11 after immunization, the volume of the tumor developing in each mouse was determined. Data are shown for each individual mouse and the mean (horizontal bar) is indicated for each condition. **, p<0.01.
The B16-OVA melanoma is not rejected by immune-competent syngeneic B6 mice, unless mice have been subjected to prophylactic or therapeutic immunization. To evaluate the capacity of laser-assisted, intradermal delivery of XCL1-OVA vaccibodies to inhibit the growth of B16-OVA tumors, B6 mice were subcutaneously inoculated in the flank with B16-OVA cells (FIG. 4A). Three days later, the ear of the mice was subjected to laser-assisted, dermal delivery of XCL1-OVA vaccibodies and tumor growth was monitored 16 days after inoculation. For the sake of comparison, mice received equimolar amounts of free OVA or PBS. […]
as §1

[4] = B6 mice, auricular LNs, 3 days after immunisation

Row | Molecule | tumor growth, therapeutic setting (B16-OVA melanoma) | IFN gamma production by CD8+ and CD4+ T cells infiltrating B16-OVA tumor mass [1] | OVA-specific T cell cytotoxicity in vivo (specific lysis) ([2]; Xcr1−/− mice) | OVA-specific T cell cytotoxicity in vivo ([2]; wild-type mice, six days after immunization, vs PBS treated mice) | effectiveness at eliciting CD4+ T cell proliferation relative to free OVA, per molecule [3, 4] [times] | effectiveness at eliciting CD8+ T cell proliferation relative to free OVA, per molecule [3, 4] [times] | OT-I and OT-II cell proliferation (CTV dilution) compared with free OVA ([3]; B6 mice, ear-draining auricular LNs, 72 h after laser-assisted delivery, equimolar amounts) | magnitude of OT-I and OT-II proliferation ([3]; Xcr1−/− mice) | proliferation of OT-I and OT-II T cells outside draining LNs ([3]; spleen and LNs that drain territories distinct from the ear, 72 h) | inhibition of B16-OVA tumor growth, XCR1 dependence (B16-OVA melanoma; B6 (WT) vs Xcr1−/− mice) | tumor growth, prophylactic setting (B16-OVA melanoma; B6 mice immunized 30 days before inoculation, monitored 14 days after inoculation, vs OVA and PBS) | tumor growth, therapeutic setting, high dose vs low dose (B16-OVA melanoma; high dose 5.0 μg XCL1-OVA) | tumor growth of B16 melanoma (B16 melanoma)
1 | ovalbumin [model antigen ovalbumin in free form, equimolar comparator, reference compound] | unable to slow down tumor growth | did not induce IFN[…]^+ T cells over PBS control |  |  |  |  |  |  |  |  |  |  | 
2 | XCL1-OVA vaccibodies: homodimeric chimeric protein of XCL1 chemokine, dimerization unit of hinge and CH3 domain of human IgG3, and OVA antigen moiety (protein) VGTEVLEESSCVNLQTQRLPVQKIKTYIIWEGAMRAVIFVTKRGLKICADPEAKWVKAAIKTVDGRASTRKNMAETVPTGAQRSTSTAITLTGELKTPLGDTTHTCPRCPEPKSCDTPPPCPRCPEPKSCDTPPPCPRCPEPKSCDTPPPCPRCPAPELLGGPSVFLFPPKPKDTLMISRTPEVTCVVVDVSHEDPEVQFKWYVDGVEVHNAKTKPREEQYNSTFRVVSVLTVLHQDWLNGKEYKCKVSNKALPAPIEKTISKTKGQPREPQVYTLPPSREEMTKNQVSLTCLVKGFYPSDIAVEWESSGQPENNYNTTPPMLDSDGSFFLYSKLTVDKSRWQQGNIFSCSVMHEALHNRFTQKSLSLSPGKGSIGAASMEFCFDVFKELKVHHANENIFYCPIAIMSALAMVYLGAKDSTRTQINKVVRFDKLPGFGDSIEAQCGTSVNVHSSLRDILNQITKPNDVYSFSLASRLYAEERYPILPEYLQCVKELYRGGLEPINFQTAADQARELINSWVESQTNGIIRNVLQPSSVDSQTAMVLVNAIVFKGLWEKAFKDEDTQAMPFRVTEQESKPVQMMYQIGLFRVASMASEKMKILELPFASGTMSMLVLLPDEVSGLEQLESIINFEKLTEWTSSNVMEERKIKVYLPRMKMEEKYNLTSVLMAMGITDVFSSSANLSGISSAESLKISQAVHAAHAEINEAGREVVGSAEAGVDAASVSEEFRADHPFLFCIKHIATNAVLFFGRCVSP | significantly suppressed tumor growth | capable of producing interferon (IFN) gamma | absence of detectable lysis | induced a significant T cell cytotoxicity | 3 | 15 | triggered a higher proliferation of OT-I and OT-II cells than free OVA | comparable to that of OVA | showed no sign of proliferation | dependent on the expression of XCR1 | significantly slowed down tumor growth | tumor growth was further reduced | not able to control the growth of B16 melanoma
